In patent US20180155406A1 (Sanofi, published 2018):
Numbered stars: 1 amine (or outer) side, 2 acyl side, 3 side chain; on linkers, the order of the positions; unused ones are H or OH. Square brackets hold non-standard residues; d marks the D form. Side chains are listed from the residue outwards. Ends that are not written are not given here. * marks the point of attachment. γGlu = O=C(O)[C@H](CCC(=O)[*:2])N[*:1]; Stearoyl = CCCCCCCCCCCCCCCCCC(=O)*; Palmitoyl = CCCCCCCCCCCCCCCC(=O)*; AEEA = NCCOCCOCC(=O)O; Aib = CC(C)(N)C(=O)O

How the values were obtained:
Test in all cases: cell-based or functional assay
[1] = target: human GLP-1 receptor (human, UniProt P43220 24-463)
[2] = target: human glucagon receptor (human, UniProt P47871 26-477)
[3] = target: T1, human GIP receptor (human, UniProt P48546 22-466)
T1 sequence (looked up): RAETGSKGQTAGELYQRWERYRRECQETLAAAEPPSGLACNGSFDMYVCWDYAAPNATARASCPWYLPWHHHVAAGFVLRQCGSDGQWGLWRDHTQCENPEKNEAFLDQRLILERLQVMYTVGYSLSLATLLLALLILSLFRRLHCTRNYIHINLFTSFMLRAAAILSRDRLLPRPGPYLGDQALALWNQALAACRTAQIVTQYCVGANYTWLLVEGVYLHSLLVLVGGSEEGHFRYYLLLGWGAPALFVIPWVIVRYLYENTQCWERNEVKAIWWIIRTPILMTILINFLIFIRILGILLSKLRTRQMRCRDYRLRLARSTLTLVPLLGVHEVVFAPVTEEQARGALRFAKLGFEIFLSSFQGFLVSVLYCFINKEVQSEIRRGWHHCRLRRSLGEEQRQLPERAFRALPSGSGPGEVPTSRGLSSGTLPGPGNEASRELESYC

Sequence of human glucagon receptor (P47871 26-477): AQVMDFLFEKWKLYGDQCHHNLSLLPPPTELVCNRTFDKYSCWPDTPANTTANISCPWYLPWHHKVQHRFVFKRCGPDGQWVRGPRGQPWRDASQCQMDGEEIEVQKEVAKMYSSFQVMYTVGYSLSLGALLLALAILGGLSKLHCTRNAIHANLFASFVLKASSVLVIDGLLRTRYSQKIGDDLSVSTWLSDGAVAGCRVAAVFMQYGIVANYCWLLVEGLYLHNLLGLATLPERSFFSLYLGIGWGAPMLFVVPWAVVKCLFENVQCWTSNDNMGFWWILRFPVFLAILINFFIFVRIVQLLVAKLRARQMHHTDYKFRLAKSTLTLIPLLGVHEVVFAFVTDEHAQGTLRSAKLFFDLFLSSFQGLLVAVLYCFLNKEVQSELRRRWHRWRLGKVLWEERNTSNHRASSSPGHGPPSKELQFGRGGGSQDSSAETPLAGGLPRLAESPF

B1: SEQ ID NO: 17 (peptide)
peptide: H[Aib]HGTFTSDLSKLK([γGlu-Stearoyl])EEQRQ[Aib]EFIEWLKA[dA]GPPS[Aib]KPPPK-NH2
modifications: N-terminus assumed
SMILES: CCCCCCCCCCCCCCCCCC(=O)N[C@@H](CCC(=O)NCCCC[C@H](NC(=O)[C@H](CC(C)C)NC(=O)[C@H](CCCCN)NC(=O)[C@H](CO)NC(=O)[C@H](CC(C)C)NC(=O)[C@H](CC(=O)O)NC(=O)[C@H](CO)NC(=O)[C@@H](NC(=O)[C@H](Cc1ccccc1)NC(=O)[C@@H](NC(=O)CNC(=O)[C@H](Cc1c[nH]cn1)NC(=O)C(C)(C)NC(=O)[C@@H](N)Cc1c[nH]cn1)[C@@H](C)O)[C@@H](C)O)C(=O)N[C@@H](CCC(=O)O)C(=O)N[C@@H](CCC(=O)O)C(=O)N[C@@H](CCC(N)=O)C(=O)N[C@@H](CCCNC(=N)N)C(=O)N[C@@H](CCC(N)=O)C(=O)NC(C)(C)C(=O)N[C@@H](CCC(=O)O)C(=O)N[C@@H](Cc1ccccc1)C(=O)N[C@H](C(=O)N[C@@H](CCC(=O)O)C(=O)N[C@@H](Cc1c[nH]c2ccccc12)C(=O)N[C@@H](CC(C)C)C(=O)N[C@@H](CCCCN)C(=O)N[C@@H](C)C(=O)N[C@H](C)C(=O)NCC(=O)N1CCC[C@H]1C(=O)N1CCC[C@H]1C(=O)N[C@@H](CO)C(=O)NC(C)(C)C(=O)N[C@@H](CCCCN)C(=O)N1CCC[C@H]1C(=O)N1CCC[C@H]1C(=O)N1CCC[C@H]1C(=O)N[C@@H](CCCCN)C(N)=O)[C@@H](C)CC)C(=O)O
Q: How did the “EC50 hGLP-1R (cAMP formation)” value [1] turn out when B1 was run?
A: 6.4 pM

Q: And the “EC50 hGlucagon R (cAMP formation)” value [2]?
A: 5.3 pM

Q: And the “EC50 hGIP R (cAMP formation)” value [3]?
A: 7.3 pM

B2: SEQ ID NO: 18 (peptide)
peptide: H[Aib]HGTFTSDLSKLK([γGlu-Palmitoyl])EEQRQ[Aib]EFIEWLKAGGPPS[Aib]KPPPK-NH2
modifications: N-terminus assumed
SMILES: CCCCCCCCCCCCCCCC(=O)N[C@@H](CCC(=O)NCCCC[C@H](NC(=O)[C@H](CC(C)C)NC(=O)[C@H](CCCCN)NC(=O)[C@H](CO)NC(=O)[C@H](CC(C)C)NC(=O)[C@H](CC(=O)O)NC(=O)[C@H](CO)NC(=O)[C@@H](NC(=O)[C@H](Cc1ccccc1)NC(=O)[C@@H](NC(=O)CNC(=O)[C@H](Cc1c[nH]cn1)NC(=O)C(C)(C)NC(=O)[C@@H](N)Cc1c[nH]cn1)[C@@H](C)O)[C@@H](C)O)C(=O)N[C@@H](CCC(=O)O)C(=O)N[C@@H](CCC(=O)O)C(=O)N[C@@H](CCC(N)=O)C(=O)N[C@@H](CCCNC(=N)N)C(=O)N[C@@H](CCC(N)=O)C(=O)NC(C)(C)C(=O)N[C@@H](CCC(=O)O)C(=O)N[C@@H](Cc1ccccc1)C(=O)N[C@H](C(=O)N[C@@H](CCC(=O)O)C(=O)N[C@@H](Cc1c[nH]c2ccccc12)C(=O)N[C@@H](CC(C)C)C(=O)N[C@@H](CCCCN)C(=O)N[C@@H](C)C(=O)NCC(=O)NCC(=O)N1CCC[C@H]1C(=O)N1CCC[C@H]1C(=O)N[C@@H](CO)C(=O)NC(C)(C)C(=O)N[C@@H](CCCCN)C(=O)N1CCC[C@H]1C(=O)N1CCC[C@H]1C(=O)N1CCC[C@H]1C(=O)N[C@@H](CCCCN)C(N)=O)[C@@H](C)CC)C(=O)O
Q: Which “EC50 hGLP-1R (cAMP formation)” value [1] does the source give for B2 here?
A: 5.3 pM

Q: And the “EC50 hGlucagon R (cAMP formation)” value [2]?
A: 2.8 pM

Q: What about the “EC50 hGIP R (cAMP formation)” value [3] of the same binder?
A: 2 pM

B3: SEQ ID NO: 16 (peptide)
peptide: H[Aib]HGTFTSDLSKLK([γGlu-Palmitoyl])EEQRQ[Aib]EFIEWLKA[dA]GPPS[Aib]KPPPK-NH2
modifications: N-terminus assumed
SMILES: CCCCCCCCCCCCCCCC(=O)N[C@@H](CCC(=O)NCCCC[C@H](NC(=O)[C@H](CC(C)C)NC(=O)[C@H](CCCCN)NC(=O)[C@H](CO)NC(=O)[C@H](CC(C)C)NC(=O)[C@H](CC(=O)O)NC(=O)[C@H](CO)NC(=O)[C@@H](NC(=O)[C@H](Cc1ccccc1)NC(=O)[C@@H](NC(=O)CNC(=O)[C@H](Cc1c[nH]cn1)NC(=O)C(C)(C)NC(=O)[C@@H](N)Cc1c[nH]cn1)[C@@H](C)O)[C@@H](C)O)C(=O)N[C@@H](CCC(=O)O)C(=O)N[C@@H](CCC(=O)O)C(=O)N[C@@H](CCC(N)=O)C(=O)N[C@@H](CCCNC(=N)N)C(=O)N[C@@H](CCC(N)=O)C(=O)NC(C)(C)C(=O)N[C@@H](CCC(=O)O)C(=O)N[C@@H](Cc1ccccc1)C(=O)N[C@H](C(=O)N[C@@H](CCC(=O)O)C(=O)N[C@@H](Cc1c[nH]c2ccccc12)C(=O)N[C@@H](CC(C)C)C(=O)N[C@@H](CCCCN)C(=O)N[C@@H](C)C(=O)N[C@H](C)C(=O)NCC(=O)N1CCC[C@H]1C(=O)N1CCC[C@H]1C(=O)N[C@@H](CO)C(=O)NC(C)(C)C(=O)N[C@@H](CCCCN)C(=O)N1CCC[C@H]1C(=O)N1CCC[C@H]1C(=O)N1CCC[C@H]1C(=O)N[C@@H](CCCCN)C(N)=O)[C@@H](C)CC)C(=O)O
Q: For B3, which “EC50 hGLP-1R (cAMP formation)” value [1] is on record?
A: 7.1 pM

Q: What about the “EC50 hGlucagon R (cAMP formation)” value [2] of the same binder?
A: 4.3 pM

Q: What about the “EC50 hGIP R (cAMP formation)” value [3] of the same binder?
A: 3.7 pM

B4: SEQ ID NO: 13 (peptide)
peptide: H[Aib]HGTFTSDLSKLK([γGlu-γGlu-Palmitoyl])EEQRQ[Aib]EFIEWLKA[dA]GHPS[Aib]KPPPK-NH2
modifications: N-terminus assumed
SMILES: CCCCCCCCCCCCCCCC(=O)N[C@@H](CCC(=O)N[C@@H](CCC(=O)NCCCC[C@H](NC(=O)[C@H](CC(C)C)NC(=O)[C@H](CCCCN)NC(=O)[C@H](CO)NC(=O)[C@H](CC(C)C)NC(=O)[C@H](CC(=O)O)NC(=O)[C@H](CO)NC(=O)[C@@H](NC(=O)[C@H](Cc1ccccc1)NC(=O)[C@@H](NC(=O)CNC(=O)[C@H](Cc1c[nH]cn1)NC(=O)C(C)(C)NC(=O)[C@@H](N)Cc1c[nH]cn1)[C@@H](C)O)[C@@H](C)O)C(=O)N[C@@H](CCC(=O)O)C(=O)N[C@@H](CCC(=O)O)C(=O)N[C@@H](CCC(N)=O)C(=O)N[C@@H](CCCNC(=N)N)C(=O)N[C@@H](CCC(N)=O)C(=O)NC(C)(C)C(=O)N[C@@H](CCC(=O)O)C(=O)N[C@@H](Cc1ccccc1)C(=O)N[C@H](C(=O)N[C@@H](CCC(=O)O)C(=O)N[C@@H](Cc1c[nH]c2ccccc12)C(=O)N[C@@H](CC(C)C)C(=O)N[C@@H](CCCCN)C(=O)N[C@@H](C)C(=O)N[C@H](C)C(=O)NCC(=O)N[C@@H](Cc1c[nH]cn1)C(=O)N1CCC[C@H]1C(=O)N[C@@H](CO)C(=O)NC(C)(C)C(=O)N[C@@H](CCCCN)C(=O)N1CCC[C@H]1C(=O)N1CCC[C@H]1C(=O)N1CCC[C@H]1C(=O)N[C@@H](CCCCN)C(N)=O)[C@@H](C)CC)C(=O)O)C(=O)O
Q: Which “EC50 hGLP-1R (cAMP formation)” value [1] does the source give for B4 here?
A: 2.8 pM

Q: What about the “EC50 hGlucagon R (cAMP formation)” value [2] of the same binder?
A: 2.1 pM

Q: And the “EC50 hGIP R (cAMP formation)” value [3]?
A: 2.7 pM

B5: SEQ ID NO: 15 (peptide)
peptide: H[Aib]HGTFTSDLSKLK([γGlu-γGlu-AEEA-Palmitoyl])EEQRQKEFIEWLKA[dA]GHPS[Aib]KPPPK-NH2
modifications: N-terminus assumed
SMILES: CCCCCCCCCCCCCCCC(=O)NCCOCCOCC(=O)N[C@@H](CCC(=O)N[C@@H](CCC(=O)NCCCC[C@H](NC(=O)[C@H](CC(C)C)NC(=O)[C@H](CCCCN)NC(=O)[C@H](CO)NC(=O)[C@H](CC(C)C)NC(=O)[C@H](CC(=O)O)NC(=O)[C@H](CO)NC(=O)[C@@H](NC(=O)[C@H](Cc1ccccc1)NC(=O)[C@@H](NC(=O)CNC(=O)[C@H](Cc1c[nH]cn1)NC(=O)C(C)(C)NC(=O)[C@@H](N)Cc1c[nH]cn1)[C@@H](C)O)[C@@H](C)O)C(=O)N[C@@H](CCC(=O)O)C(=O)N[C@@H](CCC(=O)O)C(=O)N[C@@H](CCC(N)=O)C(=O)N[C@@H](CCCNC(=N)N)C(=O)N[C@@H](CCC(N)=O)C(=O)N[C@@H](CCCCN)C(=O)N[C@@H](CCC(=O)O)C(=O)N[C@@H](Cc1ccccc1)C(=O)N[C@H](C(=O)N[C@@H](CCC(=O)O)C(=O)N[C@@H](Cc1c[nH]c2ccccc12)C(=O)N[C@@H](CC(C)C)C(=O)N[C@@H](CCCCN)C(=O)N[C@@H](C)C(=O)N[C@H](C)C(=O)NCC(=O)N[C@@H](Cc1c[nH]cn1)C(=O)N1CCC[C@H]1C(=O)N[C@@H](CO)C(=O)NC(C)(C)C(=O)N[C@@H](CCCCN)C(=O)N1CCC[C@H]1C(=O)N1CCC[C@H]1C(=O)N1CCC[C@H]1C(=O)N[C@@H](CCCCN)C(N)=O)[C@@H](C)CC)C(=O)O)C(=O)O
Q: For B5, which “EC50 hGLP-1R (cAMP formation)” value [1] is on record?
A: 1.1 pM

Q: And the “EC50 hGlucagon R (cAMP formation)” value [2]?
A: 4.5 pM

Q: What about the “EC50 hGIP R (cAMP formation)” value [3] of the same binder?
A: 1.8 pM

B6: SEQ ID NO: 14 (peptide)
peptide: H[Aib]HGTFTSDLSKLK([γGlu-γGlu-AEEA-Palmitoyl])EEQRQKEFIEWLKAGGHPS[Aib]KPPPK-NH2
modifications: N-terminus assumed
SMILES: CCCCCCCCCCCCCCCC(=O)NCCOCCOCC(=O)N[C@@H](CCC(=O)N[C@@H](CCC(=O)NCCCC[C@H](NC(=O)[C@H](CC(C)C)NC(=O)[C@H](CCCCN)NC(=O)[C@H](CO)NC(=O)[C@H](CC(C)C)NC(=O)[C@H](CC(=O)O)NC(=O)[C@H](CO)NC(=O)[C@@H](NC(=O)[C@H](Cc1ccccc1)NC(=O)[C@@H](NC(=O)CNC(=O)[C@H](Cc1c[nH]cn1)NC(=O)C(C)(C)NC(=O)[C@@H](N)Cc1c[nH]cn1)[C@@H](C)O)[C@@H](C)O)C(=O)N[C@@H](CCC(=O)O)C(=O)N[C@@H](CCC(=O)O)C(=O)N[C@@H](CCC(N)=O)C(=O)N[C@@H](CCCNC(=N)N)C(=O)N[C@@H](CCC(N)=O)C(=O)N[C@@H](CCCCN)C(=O)N[C@@H](CCC(=O)O)C(=O)N[C@@H](Cc1ccccc1)C(=O)N[C@H](C(=O)N[C@@H](CCC(=O)O)C(=O)N[C@@H](Cc1c[nH]c2ccccc12)C(=O)N[C@@H](CC(C)C)C(=O)N[C@@H](CCCCN)C(=O)N[C@@H](C)C(=O)NCC(=O)NCC(=O)N[C@@H](Cc1c[nH]cn1)C(=O)N1CCC[C@H]1C(=O)N[C@@H](CO)C(=O)NC(C)(C)C(=O)N[C@@H](CCCCN)C(=O)N1CCC[C@H]1C(=O)N1CCC[C@H]1C(=O)N1CCC[C@H]1C(=O)N[C@@H](CCCCN)C(N)=O)[C@@H](C)CC)C(=O)O)C(=O)O
Q: Which results are given for B6?
A: EC50 hGLP-1R (cAMP formation) [1]: 0.9 pM; EC50 hGlucagon R (cAMP formation) [2]: 3.4 pM; EC50 hGIP R (cAMP formation) [3]: 1.2 pM
